Patent publication US10646600B2, “HER2 polypeptides useful for imaging and monitoring tumors and cancers” (GE HEALTHCARE LIMITED, priority 2013, dated 2020)
Where two headings read alike, the source gives them in different places.

What was measured:
human HER2 = biological target: T1, human HER2 (Homo sapiens, UniProt P04626); assay: Surface Plasmon Resonance, human HER2-ECD-Fc; format: binding
T1 construct: Human, rhesus and rat HER2-ECD-Fc (SINO Biological, Beijing, China, Cat. Nr: 10004-H02H, 90020-K02H, and 80079-R02H); Fc (C); purchased SINO Biological 10004-H02H
Protocol: To characterize the affinity of [^19F]GE-226[SEQ ID NO 1] to HER2 protein, Surface Plasmon Resonance studies were conducted. Human, rhesus and rat HER2-ECD-Fc (SINO Biological, Beijing, China, Cat. Nr: 10004-H02H, 90020-K02H, and 80079-R02H), as well as human HER2-ECD-Fc-6×His (R&D Systems, Minneapolis, Minn., Cat. Nr: 1129-ER) and p95HER2 ECD-Fc-6×His (Syngene, Cambridge, United Kingdom) were diluted with 50 mM sodium acetate pH 4.5 (Biacore (GE Healthcare, Buckinghamshire, UK) coupling buffer) to a final concentration of 10 μg/mL. Antigen coupling to Biacore sensor chip CMS (Cat. Nr: BR-1005-30) was done according to amine coupling protocol from the instrument manual (Syngene). HBS-EP buffer (10 mM HEPES pH 7.4, 150 mM NaCl, 3 mM EDTA and 0.005% surfactant P20; GE Healthcare, Little Chalfont, United Kingdom, Cat. Nr: BR-1006-69) was used as running buffer and as solvent for the substances. The affinity studies were performed using a Biacore T100 (GE Healthcare). [^19F]GE-226 was diluted in HBS-EP buffer to 50 nM, 25 nM, 12.5 nM, 6.25 nM, 3.125 nM, 1.56 nM, 0.78 nM, 0.39 nM, 0.195 nM, 0.097 nM, 0.049 nM and 0 nM. The flow cells of the first chip comprised of blank, human HER2-ECD-Fc-6×His, p95HER2-ECD-Fc-6×His batch I and p95HER2-ECD-Fc-6×His batch II. The flow cells on the second chip contained blank, human HER2-ECD-Fc, rhesus HER2-ECD-Fc and rat HER2 ECD-Fc. The immobilization of the proteins was validated with protein-A (Sigma-Aldrich, St. Louis, Mo., Cat. Nr: P6031) and anti-human IgG antibody (Perkin Elmer, Waltham, Mass., Cat. Nr: NEF803001EA). [^19F]GE-226[SEQ ID NO 1] was pumped in duplicate over cells in randomized order for 60 sec at 50 μL/min flow rate followed by 120 sec of HBS-EP to monitor dissociation. This was followed by regeneration of the chip with 50 mM sodium hydroxide for 30 sec at 30 μL/min flow rate followed by 60 sec run of HBS-EP to stabilize the surface. Kinetic calculations were performed using Langmuir 1:1 binding model and simultaneous calculation of association and dissociation phase.

SKOV-3 xenografts = assay: PET-CT imaging and kinetic modeling, SKOV-3 xenografts; format: in vivo, mice
Protocol: […] […] To investigate response to HSP90 inhibition, SKOV-3 xenograft-bearing mice were treated with 50 mg/kg NVP-AUY922 or equivalent volume of vehicle (˜5 μL/g body weight; 10% DMSO and 5% Tween-20 in PBS) q.d. i.p. for three days. 24 h after the last treatment, animals were used for PET imaging.
Mice were anesthetized through isoflurane inhalation and scanned on a dedicated small animal PET-CT scanner (Siemens Multimodality Inveon, Erlangen, Germany). Low dose CT scans were first acquired (80 kVp, 0.5 mA, 220 degree rotation, 600 ms per degree exposure time, 80 μm reconstruction pixel size) for PET attenuation correction and to obtain an anatomical reference. PET images were acquired following a bolus i.v. injection of approximately 3.7 MBq [^18F]GE-226 in the tail vein. Dynamic emission scans were acquired in list mode format over 60 minutes. The acquired data were sorted into 0.5-mm sinogram bins and 19 time frames for image reconstruction by filtered back projection (4×15 seconds and 4×60 seconds followed by 11×300 seconds). The Siemens Inveon Research Workplace software was used for visualization of radiotracer uptake. 30 to 60-minute cumulative images of the dynamic data were employed to define 3-dimensional (3D) regions of interest (ROI). Arterial input function was estimated by drawing ROIs over the center of the heart cavity using 0.25 to 2 minutes of cumulative images. The count densities were averaged for all ROIs at each time point to obtain time versus radioactivity curves (TAC). Tumor TACs were normalized to injected dose measured by a VDC-304 dose calibrator (Veenstra Instruments, Joure, Netherlands) and normalized uptake was expressed as percentage injected dose per mL tissue (NUV; % ID/mL). Normalized uptake of radiotracer at 60 minutes (NUV60) was used for comparisons. For qualitative image visualization, cumulative images of the dynamic data (30 to 60 min) were also iteratively reconstructed (OSEM3D).
Kinetic analysis of PET data was performed applying a standard two-tissue irreversible compartmental model to fit each tumor TAC with the corresponding image-derived plasma TAC as input function (IF) to estimate K1 (mL/cm^3/min), k2, (1/min) and k3 (1/min) and the blood vascular component Vb (mL blood/mL tissue; unitless). The irreversible uptake rate Ki (mL/cm^3/min) was computed as K1×k3/(k2+k3). To estimate the kinetic parameters the measured tumor TAC (tTAC) was modeled as tTAC(t)=(1−Vb)h(t)⊗IF(t)+VbIF(t) with h(t) indicating the unknown tissue impulse function and ⊗ the convolution operator. The parameter vector p=[K1, k2, k3, Vb] was estimated with the standard Weighted Non-Linear Least Squares (WNLLS) by minimizing the Weighted Residual Sum of Squares (WRSS) function

Kd (human HER2; human HER2, text, read-out: KD) [pM]	Off-rate koff (human HER2; Human HER2) [s⁻¹]	Rmax (human HER2; Human HER2)	On-rate kon (human HER2; Human HER2, Langmuir 1:1 binding model) [M⁻¹ s⁻¹]	Chi-Square χ^2 (human HER2; Human HER2, fit statistic)	U-value (human HER2; Human HER2, fit statistic)	Kd (human HER2; Human HER2, read-out: Affinity KD) [pM]	binding to human HER2 (words) (human HER2; listed as GE-226)	binding to human HER2 (words) (human HER2; listed as [^19F]-GE-226)	Substance	NUV60 (SKOV-3 xenografts; PET, 60 minutes) [% ID/mL]	tumor tracer uptake at 2 h (SKOV-3 xenografts; SKOV-3 xenografts, 2 h versus 1 h)	Ki (net irreversible uptake rate) (SKOV-3 xenografts; two-tissue irreversible compartmental model) [mL/cm^3/min]	NUV60 of [18F]GE-226 in blocked tumors (SKOV-3 xenografts; 30 mg/kg [19F]GE-226 i.v. 20 minutes prior to PET scan) [% ID/mL]
76									[^18F]GE-226: HER2-binding 18F-radiolabelled Affibody molecule ZHER2:2891	18.7±2.4	higher at 2 h	0.036±0.0065	
76	0.00131	133.5	1.73e+07	0.607	3	75.8	binds with high affinity	high affinity binding	[^19F]GE-226: cold unlabeled non-radioactive 19F analogue of the tracer, used for SPR and blocking				7.1±1.6
